Assays:
recombinant human IL-2Rβ = target: T1, recombinant human IL-2Rβ (human, UniProt P14784 27-240); test: SPR, receptor chain immobilised on the chip, antibody flowed over
T1 construct: Recombinant chain immobilised on the SPR chip and used as ELISA antigen; also called CD122; interleukin 2 receptor β
T1 sequence (looked up): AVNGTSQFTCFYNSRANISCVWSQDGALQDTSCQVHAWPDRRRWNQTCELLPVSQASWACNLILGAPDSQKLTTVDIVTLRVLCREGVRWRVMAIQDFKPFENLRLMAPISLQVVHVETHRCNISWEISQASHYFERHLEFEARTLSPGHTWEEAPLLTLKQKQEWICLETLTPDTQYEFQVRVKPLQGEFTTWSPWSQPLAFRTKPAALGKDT
Experimental: (§1) Association/dissociation of the anti-IL-2Rβ/γc bispecific antibody to/from the receptor chains was measured in Surface Plasmon Resonance using recombinant IL-2Rβ or γc chains immobilised on a chip, and flowing various concentrations of the antibody over the surface.

recombinant human γc = target: T2, recombinant human γc (human, UniProt P31785 23-262); test: as above
T2 construct: Recombinant chain immobilised on the SPR chip and used as ELISA antigen; also called common γ chain; CD132
T2 sequence (looked up): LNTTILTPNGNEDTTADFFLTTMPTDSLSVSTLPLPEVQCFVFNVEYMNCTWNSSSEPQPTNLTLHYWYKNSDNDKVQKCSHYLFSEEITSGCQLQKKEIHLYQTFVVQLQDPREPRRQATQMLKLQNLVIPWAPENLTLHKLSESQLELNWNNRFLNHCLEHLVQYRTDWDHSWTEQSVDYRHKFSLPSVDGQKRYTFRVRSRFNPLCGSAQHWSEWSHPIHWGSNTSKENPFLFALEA
Experimental: as §1

B1: bispecific anti-IL-2Rβ/γc antibody P2H7/P2B9 (bispecific antibody)
chain 1: not shown
chain 2: QVQLQESGPGLVKPSETLSLTCTVSGGSISSSSYYWGWIRQPPGKGLEWIGSIYYSGSTYYNPSLKSRVTISVDTSKNQFSLKLSSVTAADTAVYYCAGDILTGYALDYWGQGTLVTVSSGGGGSGGGGSGGGGSSYELTQPPSMSVSPGQTARITCSGDALPKQFAFWYQQKPGQAPVLVIYKDTERPSGIPERFSGSSSGTTVTLTITGVQAEDEADYYCQSPDSSGTVEVFGGGTKLTVLNSGAGTAAATHTCPPCPAPEAAGGPSVFLFPPKPKDTLMISRTPEVTCVVVDVSHEDPEVKFNWYVDGVEVHNAKTKPREEQYNSTYRVVSVLTVLHQDWLNGKEYKCKVSNKALPAPIEKTISKAKGQPREPQVCTLPPSRDELTKNQVSLSCAVKGFYPSDIAVEWESNGQPENNYKTTPPVLDSDGSFFLVSKLTVDKSRWQQGNVFSCSVMHEALHNHYTQKSLSLSPGK
Recombinant human IL-2Rβ
  Kd: 101 nM
Recombinant human γc
  Kd: 79.8 nM

Source: US20180194853A1 (published 2018)
